{
  "source": "patent US7517652B2",
  "about": "“Methods of diagnosing tumors using the G-protein coupled receptor (GPCR), RAI-3” (Bristol-Myers Squibb Company, priority 2002, dated 2009)",
  "molecules": {"B1": {"name": "epidermal growth factor (protein, UniProt P01133 23-1207, looked up)", "Pro-epidermal growth factor": "PQHWSCPEGTLAGNGNSTCVGPAPFLIFSHGNSIFRIDTEGTNYEQLVVDAGVSVIMDFHYNEKRIYWVDLERQLLQRVFLNGSRQERVCNIEKNVSGMAINWINEEVIWSNQQEGIITVTDMKGNNSHILLSALKYPANVAVDPVERFIFWSSEVAGSLYRADLDGVGVKALLETSEKITAVSLDVLDKRLFWIQYNREGSNSLICSCDYDGGSVHISKHPTQHNLFAMSLFGDRIFYSTWKMKTIWIANKHTGKDMVRINLHSSFVPLGELKVVHPLAQPKAEDDTWEPEQKLCKLRKGNCSSTVCGQDLQSHLCMCAEGYALSRDRKYCEDVNECAFWNHGCTLGCKNTPGSYYCTCPVGFVLLPDGKRCHQLVSCPRNVSECSHDCVLTSEGPLCFCPEGSVLERDGKTCSGCSSPDNGGCSQLCVPLSPVSWECDCFPGYDLQLDEKSCAASGPQPFLLFANSQDIRHMHFDGTDYGTLLSQQMGMVYALDHDPVENKIYFAHTALKWIERANMDGSQRERLIEEGVDVPEGLAVDWIGRRFYWTDRGKSLIGRSDLNGKRSKIITKENISQPRGIAVHPMAKRLFWTDTGINPRIESSSLQGLGRLVIASSDLIWPSGITIDFLTDKLYWCDAKQSVIEMANLDGSKRRRLTQNDVGHPFAVAVFEDYVWFSDWAMPSVMRVNKRTGKDRVRLQGSMLKPSSLVVVHPLAKPGADPCLYQNGGCEHICKKRLGTAWCSCREGFMKASDGKTCLALDGHQLLAGGEVDLKNQVTPLDILSKTRVSEDNITESQHMLVAEIMVSDQDDCAPVGCSMYARCISEGEDATCQCLKGFAGDGKLCSDIDECEMGVPVCPPASSKCINTEGGYVCRCSEGYQGDGIHCLDIDECQLGEHSCGENASCTNTEGGYTCMCAGRLSEPGLICPDSTPPPHLREDDHHYSVRNSDSECPLSHDGYCLHDGVCMYIEALDKYACNCVVGYIGERCQYRDLKWWELRHAGHGQQQKVIVVAVCVVVLVMLLLLSLWGAHYYRTQKLLSKNPKNPYEESSRDVRSRRPADTEDGMSSCPQPWFVVIKEHQDLKNGGQPVAGEDGQAADGSMQPTSWRQEPQLCGMGTEQGCWIPVSSDKGSCPQVMERSFHMPSYGTQTLEGGVEKPHSLLSANPLWQQRALDPPHQMELTQ", "modifications": "Pro-epidermal growth factor"}},
  "test_system": "Flag-RAI-3",
  "assay": "Anti-FLAG immunoprecipitation and anti-phosphotyrosine Western blot of A549 cells transiently transfected with Flag-RAI-3",
  "format": "cell-based, human",
  "conditions": "CS-160 1 to 3 hours, EGF 10 nM",
  "protocol": "FIGS. 26A and 26B illustrate the results of Western Blot analysis of an A549 cell line (Human Lung Carcinoma CCL-185, American Type Culture Collection, Manassas, Va.) transiently transfected with a FLAG RAI-3 construct (described herein). Media on the cells was changed to serum-free and 48 hours port-transfection the cells were treated with cigarette smoke-bubbled media (i.e., CS-160, the equivalent of 160 cigarettes per 500 ml of cell medium) for the periods of time shown (1 hr., 2 hr., and 3 hr.) and with EGF (10 nM) for 5 minutes. Lysates were immuno-precipitated with 2 μg of anti-FLAG M2 antibody (Catalog # F-3165, Sigma, Saint Louis, Mo.) and 40 μl of Protein A. The Protein A/lysate/antibody mixture was washed, aspirated “dry”, and 60 μl of 2×SDS-PAGE sample buffer was added. After heating at 95° C. for 10 minutes, the samples were loaded onto two 4-20% gradient gels, resolved by SDS-PAGE and transferred to nitrocellulose by standard Western Blotting techniques.\nThe A549 cell line (American Type Culture Collection, Manassas, Va.) was plated in 100 mm petri dishes and transfected at about 75% confluency. […]",
  "data": [
    {"molecule": "B1", "values": [
      {"measurement": "tyrosine phosphorylation of recombinant Flag-RAI-3 protein", "result": "does not appear to cause tyrosine phosphorylation"}
    ]}
  ]
}
